# Source: publication doi:10.1101/2025.01.03.631197
# Target: EPHA2 (human (endogenous in HSC-4)) (UniProt P29317)
# Assay: proximity ligation
# Sequence of UniProt P29317 (P29317 24-976): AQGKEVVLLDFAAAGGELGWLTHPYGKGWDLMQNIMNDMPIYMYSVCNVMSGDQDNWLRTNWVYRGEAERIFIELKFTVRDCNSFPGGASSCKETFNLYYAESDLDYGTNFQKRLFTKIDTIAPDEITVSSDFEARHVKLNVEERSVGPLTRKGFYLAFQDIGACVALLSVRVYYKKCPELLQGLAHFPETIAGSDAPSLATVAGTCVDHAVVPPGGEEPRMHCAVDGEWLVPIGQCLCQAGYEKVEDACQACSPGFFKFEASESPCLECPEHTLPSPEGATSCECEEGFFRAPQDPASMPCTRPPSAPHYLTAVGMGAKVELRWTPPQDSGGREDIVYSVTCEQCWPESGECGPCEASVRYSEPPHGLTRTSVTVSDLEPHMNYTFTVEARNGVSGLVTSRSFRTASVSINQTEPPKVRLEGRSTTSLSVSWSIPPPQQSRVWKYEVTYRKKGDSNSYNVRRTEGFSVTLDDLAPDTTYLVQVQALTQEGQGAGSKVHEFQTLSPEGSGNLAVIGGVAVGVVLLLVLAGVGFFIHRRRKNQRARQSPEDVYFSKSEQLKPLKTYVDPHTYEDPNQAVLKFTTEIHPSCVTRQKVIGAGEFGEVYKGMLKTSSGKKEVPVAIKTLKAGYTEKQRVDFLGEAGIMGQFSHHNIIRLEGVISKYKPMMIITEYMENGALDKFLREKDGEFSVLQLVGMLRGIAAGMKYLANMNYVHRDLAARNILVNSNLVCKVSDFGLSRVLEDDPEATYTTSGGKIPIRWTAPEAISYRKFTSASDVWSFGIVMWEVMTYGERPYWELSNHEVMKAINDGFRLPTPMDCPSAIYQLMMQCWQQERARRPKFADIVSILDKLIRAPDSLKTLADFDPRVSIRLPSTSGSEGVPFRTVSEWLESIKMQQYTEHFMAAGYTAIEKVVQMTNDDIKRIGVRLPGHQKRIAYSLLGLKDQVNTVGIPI
substance,measurement,value
Ephrin-B1 phosphorylated at Y324/329 (ligand),PLA foci per cell (foci per cell),2
